T1: PTPN13_1, Q12923
T1 sequence (Q12923 1088-1188, limits assumed, looked up): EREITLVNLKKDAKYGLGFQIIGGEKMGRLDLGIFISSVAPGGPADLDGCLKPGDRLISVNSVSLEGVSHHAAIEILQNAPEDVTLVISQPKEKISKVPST

T2: APBA2_1, Q99767
T2 sequence (Q99767 563-664, limits assumed, looked up): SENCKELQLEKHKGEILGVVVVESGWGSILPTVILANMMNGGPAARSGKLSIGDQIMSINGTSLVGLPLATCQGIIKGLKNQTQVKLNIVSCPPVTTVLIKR

T3: APBA2_2, Q99767
T3 sequence (Q99767 654-744, limits assumed, looked up): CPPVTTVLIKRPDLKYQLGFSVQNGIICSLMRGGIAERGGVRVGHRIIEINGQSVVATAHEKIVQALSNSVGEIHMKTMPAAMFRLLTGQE

T4: NHERF3_3, Q5T2W1
T4 sequence (Q5T2W1 238-333, limits assumed, looked up): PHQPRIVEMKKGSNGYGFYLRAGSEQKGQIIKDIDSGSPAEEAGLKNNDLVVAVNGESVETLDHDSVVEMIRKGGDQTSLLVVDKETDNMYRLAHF

T5: GRIP1_7, Q9Y3R0
T5 sequence (Q9Y3R0 999-1096, limits assumed, looked up): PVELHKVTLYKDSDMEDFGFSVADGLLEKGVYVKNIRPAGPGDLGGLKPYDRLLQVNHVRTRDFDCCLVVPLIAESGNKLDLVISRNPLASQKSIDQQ

T6: NHERF3_4, Q5T2W1
T6 sequence (Q5T2W1 373-468, limits assumed, looked up): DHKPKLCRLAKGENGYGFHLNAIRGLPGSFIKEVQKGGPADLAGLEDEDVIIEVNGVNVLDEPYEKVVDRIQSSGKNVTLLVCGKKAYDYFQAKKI

T7: NHERF3_1, Q5T2W1
T7 sequence (Q5T2W1 4-100, limits assumed, looked up): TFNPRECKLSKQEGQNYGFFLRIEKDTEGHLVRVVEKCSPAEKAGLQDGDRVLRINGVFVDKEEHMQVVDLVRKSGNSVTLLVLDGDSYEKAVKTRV

T8: LRRC7, Q96NW7
T8 sequence (Q96NW7 1440-1537, limits assumed, looked up): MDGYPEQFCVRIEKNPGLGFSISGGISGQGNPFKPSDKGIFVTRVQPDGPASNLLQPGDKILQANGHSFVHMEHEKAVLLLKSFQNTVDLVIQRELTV

T9: DFNB31_2, Q9P202
T9 sequence (Q9P202 274-371, limits assumed, looked up): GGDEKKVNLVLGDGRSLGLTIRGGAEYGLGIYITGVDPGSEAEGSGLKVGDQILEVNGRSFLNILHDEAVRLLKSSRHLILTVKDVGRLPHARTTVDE

T10: DLG3_1, Q92796
T10 sequence (Q92796 125-227, limits assumed, looked up): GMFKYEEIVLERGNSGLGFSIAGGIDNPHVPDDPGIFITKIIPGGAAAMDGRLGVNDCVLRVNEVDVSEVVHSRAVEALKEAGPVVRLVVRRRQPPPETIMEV

T11: SIPA1L2, Q9P2F8
T11 sequence (Q9P2F8 945-1036, limits assumed, looked up): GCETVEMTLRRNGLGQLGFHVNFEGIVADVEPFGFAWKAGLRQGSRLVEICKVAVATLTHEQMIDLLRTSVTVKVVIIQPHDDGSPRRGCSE

T12: ARHGAP21, Q5T5U3
T12 sequence (Q5T5U3 45-169, limits assumed, looked up): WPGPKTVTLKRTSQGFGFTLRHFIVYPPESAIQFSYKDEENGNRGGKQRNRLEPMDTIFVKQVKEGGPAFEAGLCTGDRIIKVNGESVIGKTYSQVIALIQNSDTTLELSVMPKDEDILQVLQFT


Experiments:
Experiment in all cases: holdup assay
Design in all cases: key: below the threshold = too weak to quantify, mostly under pKd 3.1 to 4
Conditions in all cases: plain residues with an end cap or a label only (N-terminal biotin on a linker: ado-ado)
PTPN13_1, Q12923 = target: T1, PTPN13_1, Q12923
HTRA2, O43464 = target: HTRA2, O43464
APBA2_1, Q99767 = target: T2, APBA2_1, Q99767
DLG2_2, Q15700 = target: DLG2_2, Q15700
APBA2_2, Q99767 = target: T3, APBA2_2, Q99767
GRID2IP_1, A4D2P6 = target: GRID2IP_1, A4D2P6
NHERF3_3, Q5T2W1 = target: T4, NHERF3_3, Q5T2W1
Inadl_2, Q8NI35 = target: Inadl_2, Q8NI35
GRIP1_7, Q9Y3R0 = target: T5, GRIP1_7, Q9Y3R0
MAGI2_3, Q86UL8 = target: MAGI2_3, Q86UL8
FRMPD2_1, Q68DX3 = target: FRMPD2_1, Q68DX3
Inadl_5, Q8NI35 = target: Inadl_5, Q8NI35
NHERF3_4, Q5T2W1 = target: T6, NHERF3_4, Q5T2W1
NHERF3_1, Q5T2W1 = target: T7, NHERF3_1, Q5T2W1
LRRC7, Q96NW7 = target: T8, LRRC7, Q96NW7
MAGI2_2, Q86UL8 = target: MAGI2_2, Q86UL8
DFNB31_2, Q9P202 = target: T9, DFNB31_2, Q9P202
DLG1_3, Q12959 = target: DLG1_3, Q12959
DLG1_2, Q12959 = target: DLG1_2, Q12959
DLG3_1, Q92796 = target: T10, DLG3_1, Q92796
SIPA1L2, Q9P2F8 = target: T11, SIPA1L2, Q9P2F8
GRIP2_7, Q9C0E4 = target: GRIP2_7, Q9C0E4
ARHGAP21, Q5T5U3 = target: T12, ARHGAP21, Q5T5U3
GIPC2, Q8TF65 = target: GIPC2, Q8TF65
IL16_4, Q14005 = target: IL16_4, Q14005
FRMPD4, Q14CM0 = target: FRMPD4, Q14CM0
Chain of FRMPD4, Q14CM0 (Q14CM0 67-160): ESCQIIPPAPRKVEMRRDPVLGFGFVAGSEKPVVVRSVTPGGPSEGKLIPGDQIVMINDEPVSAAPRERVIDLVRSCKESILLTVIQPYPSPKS

Chain of Inadl_2, Q8NI35 (Q8NI35 238-335): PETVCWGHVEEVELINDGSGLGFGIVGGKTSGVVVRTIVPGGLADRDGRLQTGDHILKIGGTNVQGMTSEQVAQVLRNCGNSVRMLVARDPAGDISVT
Chain of DLG1_2, Q12959 (Q12959 314-412): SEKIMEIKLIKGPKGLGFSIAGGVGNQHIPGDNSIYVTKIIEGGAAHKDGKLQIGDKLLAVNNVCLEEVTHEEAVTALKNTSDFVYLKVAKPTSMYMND
Chain of MAGI2_3, Q86UL8 (Q86UL8 600-682): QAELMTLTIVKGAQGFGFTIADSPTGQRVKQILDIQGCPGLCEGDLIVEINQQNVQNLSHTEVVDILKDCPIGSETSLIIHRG
Chain of Inadl_5, Q8NI35 (Q8NI35 673-780): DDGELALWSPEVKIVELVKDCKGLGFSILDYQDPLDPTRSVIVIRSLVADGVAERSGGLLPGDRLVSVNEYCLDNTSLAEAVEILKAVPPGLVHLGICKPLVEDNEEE
Chain of MAGI2_2, Q86UL8 (Q86UL8 410-522): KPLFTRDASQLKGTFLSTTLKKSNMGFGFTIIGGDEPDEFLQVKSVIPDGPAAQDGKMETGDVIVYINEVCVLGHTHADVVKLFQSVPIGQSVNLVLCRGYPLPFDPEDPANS
Chain of DLG1_3, Q12959 (Q12959 457-571): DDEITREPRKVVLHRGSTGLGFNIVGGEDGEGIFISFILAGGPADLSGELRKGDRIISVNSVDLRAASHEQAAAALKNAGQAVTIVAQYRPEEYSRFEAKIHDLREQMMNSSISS
Chain of DLG2_2, Q15700 (Q15700 189-283): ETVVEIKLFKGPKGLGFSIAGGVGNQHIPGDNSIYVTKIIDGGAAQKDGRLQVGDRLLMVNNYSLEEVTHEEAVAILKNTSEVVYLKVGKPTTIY
Chain of GRIP2_7, Q9C0E4 (Q9C0E4 934-1023): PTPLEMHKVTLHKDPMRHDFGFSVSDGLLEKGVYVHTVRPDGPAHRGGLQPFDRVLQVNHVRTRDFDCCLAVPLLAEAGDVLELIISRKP
Chain of HTRA2, O43464 (O43464 355-458): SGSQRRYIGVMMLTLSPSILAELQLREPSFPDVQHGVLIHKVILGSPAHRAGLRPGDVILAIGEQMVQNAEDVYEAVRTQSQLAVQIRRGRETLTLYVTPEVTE
Chain of GIPC2, Q8TF65 (Q8TF65 112-203): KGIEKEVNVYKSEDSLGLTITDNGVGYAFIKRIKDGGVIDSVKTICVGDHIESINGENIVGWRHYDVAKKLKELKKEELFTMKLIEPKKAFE
Chain of GRID2IP_1, A4D2P6 (A4D2P6 1-87): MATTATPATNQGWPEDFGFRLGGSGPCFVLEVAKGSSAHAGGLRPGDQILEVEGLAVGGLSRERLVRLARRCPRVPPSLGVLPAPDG
Chain of FRMPD2_1, Q68DX3 (Q68DX3 770-861): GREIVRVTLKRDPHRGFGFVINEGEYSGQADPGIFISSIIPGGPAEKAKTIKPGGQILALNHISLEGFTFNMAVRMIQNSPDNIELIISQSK
Chain of IL16_4, Q14005 (Q14005 1229-1329): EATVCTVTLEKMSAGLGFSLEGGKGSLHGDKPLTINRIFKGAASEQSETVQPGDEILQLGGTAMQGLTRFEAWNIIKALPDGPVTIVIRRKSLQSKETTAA

Row | Binder | pKd (PTPN13_1, Q12923) | pKd (HTRA2, O43464) | pKd (APBA2_1, Q99767) | pKd (DLG2_2, Q15700) | pKd (APBA2_2, Q99767) | pKd (GRID2IP_1, A4D2P6) | pKd (NHERF3_3, Q5T2W1) | pKd (Inadl_2, Q8NI35) | pKd (GRIP1_7, Q9Y3R0) | pKd (MAGI2_3, Q86UL8) | pKd (FRMPD2_1, Q68DX3) | pKd (Inadl_5, Q8NI35) | pKd (NHERF3_4, Q5T2W1) | pKd (LRRC7, Q96NW7) | pKd (DFNB31_2, Q9P202) | pKd (DLG1_3, Q12959) | pKd (DLG3_1, Q92796) | pKd (SIPA1L2, Q9P2F8) | pKd (GRIP2_7, Q9C0E4) | pKd (ARHGAP21, Q5T5U3) | also measured
1 | NTALVESEDL [PALLS, Q8WX93;Q8WX93-1] | below the threshold | below the threshold | below the threshold | below the threshold | below the threshold | below the threshold | below the threshold | below the threshold | below the threshold | below the threshold | below the threshold | below the threshold | below the threshold | below the threshold | below the threshold | below the threshold | below the threshold | below the threshold | below the threshold | below the threshold | pKd (NHERF3_1, Q5T2W1): below the threshold; pKd (MAGI2_2, Q86UL8): below the threshold; pKd (DLG1_2, Q12959): below the threshold; pKd (GIPC2, Q8TF65): below the threshold
2 | SKQFDKNAYV [CLDN10, P78369] | below the threshold | below the threshold | below the threshold | below the threshold | below the threshold | below the threshold | below the threshold | below the threshold | below the threshold | below the threshold | below the threshold | 3.52 | below the threshold | below the threshold | below the threshold | below the threshold | below the threshold | below the threshold | below the threshold | 3.84 | pKd (IL16_4, Q14005): below the threshold; pKd (NHERF3_1, Q5T2W1): 4.85; pKd (MAGI2_2, Q86UL8): below the threshold; pKd (DLG1_2, Q12959): below the threshold; pKd (FRMPD4, Q14CM0): 3.59; pKd (GIPC2, Q8TF65): below the threshold
3 | PAALPESTHM [SLC9A3, P48764] | below the threshold | below the threshold | below the threshold | below the threshold | below the threshold | below the threshold | below the threshold | below the threshold | below the threshold | below the threshold | below the threshold | below the threshold | 3.52 | below the threshold | below the threshold | below the threshold | below the threshold | below the threshold | below the threshold | 4.05 | pKd (IL16_4, Q14005): below the threshold; pKd (NHERF3_1, Q5T2W1): 5.37; pKd (MAGI2_2, Q86UL8): below the threshold; pKd (DLG1_2, Q12959): below the threshold; pKd (FRMPD4, Q14CM0): below the threshold; pKd (GIPC2, Q8TF65): below the threshold
4 | VKQYADVEGF [HNRNPK, P61978;P61978-2] | below the threshold | below the threshold | below the threshold | below the threshold | below the threshold | below the threshold | below the threshold | below the threshold | below the threshold | below the threshold | below the threshold | below the threshold | below the threshold | below the threshold | below the threshold | below the threshold | below the threshold | below the threshold | below the threshold | below the threshold | pKd (FRMPD4, Q14CM0): below the threshold; pKd (GIPC2, Q8TF65): below the threshold

Source: publication PMC9482650, “Quantitative fragmentomics allow affinity mapping of interactomes” (Nature Communications, 2022)
